The results in this text go back to paper PMC8453653, “Kinetic Characterization of a Putatively Chitin-Active LPMO Reveals a Preference for Soluble Substrates and Absence of Monooxygenase Activity” (ACS Catalysis, 2021).

Substrate in this series: O=C1O[C@H]([C@@H](O)CO)C(O)=C1O
Put plainly: initial rates of oxidized product formation by HPAEC-PAD, Michaelis-Menten fit. Particulars: reductant (apparent half-saturating concentration), 1 μM LPMO, 1 mM H2O2, 2 mM (GlcNAc)4, aerobic, 50 mM bis-tris/HCl pH 6.5, 37 °C. The format is biochemical, Aspergillus fumigatus. From the text:
initial rates of oxidized product formation by HPAEC-PAD, Michaelis-Menten fit on AfAA11B

B1: AfAA11B (Aspergillus fumigatus Af293) (protein)
chain: HMKMRQPTPYSDSSLNNSPLAADGSDFPCKLRDNAFVPPSQETIAQIGEVMPLTFTGSATHGGGSCQVSLTTDLKPSKDSKWMVIKSIEGGCPANVDGNMSGGADVPDPFEFNYTIPAGIEPGKYTLAWTWFNRIGNREMYMNCAPITVTAGSSKRDAAPVAEKVEVEKRSANFPAMFVANINGCTTKEGVDIRFPDPGDVVEYDGNPSNLQPAGEAACSGTPAWTVSGGSGSPSTPSTSSSTPAGTSAGVSVSVGATVGATPTAEPESSSSEPAESEGAPGVFAPTSATVFPSTPTASAAPTSSSSGAGSESDSSSSSNGALTGPCSTEGLWNCIDGSSFQRCANGQWTTAQQMAAGTECTVGQNAQFTISATAVKPRMINAMRHRKRAHGGHRHA
notes: gene 1257 bp; expressed in Pichia pastoris (PichiaPink Strain 4), no tag mentioned; copper-saturated
As for B1, the Michaelis-Menten constant (Km) (in general, the concentration of substrate that gives half-maximal velocity) is 502 ± 35 µM and the kcat came out at 3.9 ± 0.2 s^–1.
